According to publication PMC6753139, “TRIM66 reads unmodified H3R2K4 and H3K56ac to respond to DNA damage in embryonic stem cells” (Nature Communications, 2019):
Each block holds one molecule with its values, some of them ahead of it.

Experiments:
ESCs [1] = experiment: survival with DNA repair inhibitors (HR, NHEJ); assay type: cell-based, mouse; settings: TRIM66-depleted ESCs under EPI treatment with HR or NHEJ inhibitor
From the text: reagent (Fig. S9b, c). We further performed the competitive survival experiment through co-culturing the GFP-labeled wild-type ESCs and TRIM66 KO ESCs under EPI treatment, and our […]
was indeed required for ESC to survive DNA damage (Fig. S9d). […]
localization of γ-H2AX foci and HR repair related proteins (Rad51 and CtIP) or NHEJ repair related protein (DNA-PKcs) in ESCs (Fig. 5f, 5g, S11d, and S11e). We further applied two specific inhibitors (YU238259 and NU7441) to block HR and NHEJ repair respectively (Stachelek et al., […]
affect both HR and NHEJ repair pathways in ESCs (Fig. S11f). To better clarify the mechanisms of TRIM66 involved in the regulation of DNA damage, w e performed the immunofluorescence assay […]
to bind at DNA damage sites (Fig. S11a). […] We also analyzed the relevance of […]
depletion of TRIM66 disrupted the negative correlation of H3K56ac and γ-H2AX (Fig. 5d). In view of the recognition of TRIM66 and H3K56ac (Fig.2 and Fig. S10), we speculated that the loose winding of nucleosomal DNA nearby the DNA damage sites might expose H3K56ac to its reader TRIM66, while TRIM66 deficiency impeded the erasure of H3K56ac at DNA damage sites and the recruitment of DNA repair proteins. […]

ESCs [2] = experiment: survival analysis of ESCs treated with DNA-damaging agents; assay type: cell-based, mouse; settings: TRIM66-depleted ESCs
Procedure: Furthermore, we performed competitive survival experiment through mixing the equal amount of TRIM66-KO ESCs and green fluorescent protein (GFP)-labeled WT ESCs (WT-GFP), then co-cultured for 5 days under EPI treatment.
For the culture of ESCs, the medium was changed every day and the cells were passaged every 2 days. The 293T cells were cultured in DMEM containing 10% fetal bovine serum. […]
a, The expression level of DNA damage related genes (Cdkn1a, Gadd45a, and p53) in WT and TRIM66 KO ESCs […]
assay c in WT and TRIM66 KO ESCs treated with EPI. e, Clonal competition assay of WT and TRIM66 KO ESCs treated with EPI in different days (day 1, 3, and 5). Representative images show the mixtures of WT-GFP and […] clones. Scale bar, 10 μm.* represents a difference from WT ESCs or GFP-negative ESC clones at day 1, # indicates a difference from GFP-positive ESC clones at day 1. Statistical significance is determined by two-tailed
(1 picture or pasted object on this page, not shown here)

TRIM33_(882-1087) = biological target: T1, TRIM33_(882-1087) (human, UniProt Q9UPN9 882-1087); experiment: ITC; 0.7–4 mM peptide injected into a cell with 0.05 or 0.11–0.15 mM TRIM66-PHD-Bromo (or its mutants), 0.12 mM TRIM24-PHD-Bromo or 0.05 mM TRIM33 PHD-Bromo; 25 °C; 20 mM Tris, 100 mM NaCl, pH 7.5; MicroCal PEAQ-ITC; single measurement; settings: both partners purified
T1 construct: also called TRIM33 PHD-Bromo; TRIM33 PHD-Bromodomain; source: E. coli BL21 (DE3), purified (Ni-chelating column, SUMO protease, second nickel column, Superdex 75)
T1 sequence (looked up): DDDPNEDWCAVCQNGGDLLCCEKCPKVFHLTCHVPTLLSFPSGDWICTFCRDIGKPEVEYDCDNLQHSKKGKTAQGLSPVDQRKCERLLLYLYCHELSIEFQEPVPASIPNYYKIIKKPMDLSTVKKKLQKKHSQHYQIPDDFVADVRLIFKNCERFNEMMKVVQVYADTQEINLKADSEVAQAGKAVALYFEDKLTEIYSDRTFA

TRIM24_(824-1006) = biological target: T2, TRIM24_(824-1006) (human, UniProt O15164 824-1006); experiment: as above; settings: both partners purified
T2 construct: TRIM24, human, PHD-Bromodomain, residues 824-1006, amplified from a human bone marrow cDNA library, in pET-SUMO-28a (+); also called TRIM24-PHD-Bromo; TRIM24 PHD-Bromodomain; source: E. coli BL21 (DE3), purified (Ni-chelating column, SUMO protease, second nickel column, Superdex 75)
T2 sequence (looked up): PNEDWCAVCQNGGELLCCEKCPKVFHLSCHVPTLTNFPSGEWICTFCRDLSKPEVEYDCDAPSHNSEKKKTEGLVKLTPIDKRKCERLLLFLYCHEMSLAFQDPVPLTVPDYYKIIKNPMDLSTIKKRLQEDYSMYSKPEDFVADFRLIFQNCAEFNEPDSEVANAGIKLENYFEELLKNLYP

TRIM66_(965-1160) E968A [3] = biological target: T3, TRIM66_(965-1160) E968A (human, UniProt O15016 965-1160, E968A); experiment: ITC
Target sequence in this assay (O15016 1100-1295 E1103A): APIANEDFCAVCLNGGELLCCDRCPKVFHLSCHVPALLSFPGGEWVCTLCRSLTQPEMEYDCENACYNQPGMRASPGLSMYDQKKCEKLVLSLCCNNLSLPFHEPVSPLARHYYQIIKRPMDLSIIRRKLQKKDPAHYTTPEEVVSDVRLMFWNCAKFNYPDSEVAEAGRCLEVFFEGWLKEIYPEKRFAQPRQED

TRIM66_(965-1160) N969A [4] = biological target: T4, TRIM66_(965-1160) N969A (human, UniProt O15016 965-1160, N969A); experiment: ITC
Target sequence in this assay (O15016 1100-1295 N1104A): as the sequence (O15016 1100-1295 E1103A) above, with A4E, N5A counted along it

[5] = biological target: T5, TRIM33_(882-1087) (PHD-Bromodomain) (human, UniProt Q9UPN9 882-1087); experiment: ITC; MicroCal PEAQ-ITC, 25 °C, 20 mM Tris, 100 mM NaCl, pH 7.5; 0.7-4 mM peptide injected into the cell with 0.12 mM TRIM24-PHD-Bromo, 0.05 mM TRIM33 PHD-Bromo, or 0.05 or 0.11-0.15 mM TRIM66-PHD-Bromo (or its mutants); single measurement, errors from the fitting curve; settings: both partners purified
T5 construct: also called TRIM33 PHD-Bromo; source: E. coli BL21 (DE3), purified (Ni column, SUMO protease, second Ni column, Superdex 75)
T5 sequence (looked up): T1 sequence (looked up)

[6] = biological target: T6, TRIM24_(824-1006) (PHD-Bromodomain) (human, UniProt O15164 824-1006); experiment: as above; settings: both partners purified
T6 construct: TRIM24 PHD-Bromodomain, Homo sapiens, residues 824-1006 of UniProt O15164 (Isoform long); also called TRIM24-PHD-Bromo; source: E. coli BL21 (DE3), purified (Ni column, SUMO protease, second Ni column, Superdex 75)
T6 sequence (looked up): T2 sequence (looked up)

[7] = biological target: TRIM66-MUT_(968-1160) (PHD-Bromodomain) (human) (UniProt O15016); experiment: ITC; MicroCal PEAQ-ITC, 25 °C, 20 mM Tris, 100 mM NaCl, pH 7.5; 0.7-4 mM peptide injected into the cell with 0.12 mM TRIM24-PHD-Bromo, 0.05 mM TRIM33 PHD-Bromo, or 0.05 or 0.11-[…] TRIM66-PHD-Bromo (or its mutants); single measurement, errors from the fitting curve
TRIM66_(965-1160) E968A [8] = biological target: T3, TRIM66_(965-1160) E968A; experiment: as above
[9] = biological target: TRIM66-WT_(965-1160) (PHD-Bromodomain) (human) (UniProt O15016); experiment: as above
TRIM66_(965-1160) N969A [10] = biological target: T4, TRIM66_(965-1160) N969A; experiment: as above

Molecule: O=c1cc(N2CCOCC2)oc2c(-c3cccc4c3sc3ccccc34)cccc12 [NU7441]
- survival rate of TRIM66-depleted ESCs (in words) (ESCs [1]): significant decrease in the survival rate

Molecule: YU238259
- survival rate of TRIM66-depleted ESCs (in words) (ESCs [1]): significant decrease in the survival rate

Molecule: bleomycin
- survival of TRIM66-KO versus WT ESCs (in words) (ESCs [2]): significantly impaired
- survival of TRIM66-KO versus WT ESCs (in words) (ESCs [2]; listed as bleomycin): significantly reduced the survival rates

- Kd (TRIM33_(882-1087)): 3.39 µM
- Kd (TRIM24_(824-1006)): 51.4 µM
- Kd (TRIM66_(965-1160) E968A [3]): 34.8 µM
- Kd (TRIM66_(965-1160) N969A [4]): 72.6 µM
B1: H3_(1-12) peptide, unmodified (peptide, UniProt P68431 2-13, looked up)
peptide: ARTKQTARKSTG
notes: histone H3, residues 1-12, unmodified; also called unH3_(1-12); unmodified H3_(1-12); source: synthetic peptide (GL Biochem, Shanghai)

- stoichiometry N [5]: 1.06
- stoichiometry N [6]: 0.92
- stoichiometry N [7]: 1.12
- Kd (TRIM66_(965-1160) E968A [8]): 34.8 µM
- stoichiometry N (TRIM66_(965-1160) E968A [8]): 1.04
- stoichiometry N [9]: 0.96
- Kd (TRIM66_(965-1160) N969A [10]): 72.6 µM
- stoichiometry N (TRIM66_(965-1160) N969A [10]): 0.84
B2: H3_(1-12) peptide (peptide, UniProt P68431 2-13, looked up)
peptide: ARTKQTARKSTG
notes: histone H3.1, Homo sapiens, residues 1-12; also called unH3_(1-12); unmodified H3_(1-12); source: synthetic peptide (GL Biochem)
